According to patent US20220363752A1 (VERSEAU THERAPEUTICS, published 2022):
Primed or numbered codes have the meaning given here. Biotin′ = not defined here

What was measured:
[1] = target: T1, LRRC25(21-40) biotin peptide (human, not fully specified; N-terminal NH2; C-terminal GGK-Biotin; native Cys changed to Ser); assay: peptide ELISA
T1 peptide: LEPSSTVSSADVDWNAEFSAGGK
Procedure: (§1) To establish if functional chimera anti-LRRC25 antibodies recognize particular regions of LRRC25, ELISA experiments were performed using 10 plate-immobilized 16- to 20-mer overlapping LRRC25(ECD) biotin peptides (Table 7). Biotinylated human LRRC25-His served as a positive control. A typical ELISA was performed by coating overnight at 4° C., 3 ug/mL/25 ul per well of streptavidin (Jackson Immunoresearch, Cat. #016-030-084) in PBS in half-area high binding microtiter wells (Corning Cat. #3690). […] Biotin peptides or biotinylated human LRRC25-His protein were added in duplicate (2 ug/mL/25 ul per well) in assay buffer (blocking buffer containing 0.05% tween 20) and the plate incubated for 45 min at 37° C. The plate was washed as before, 20 nM anti-LRRC25 antibodies in assay buffer added in duplicate into appropriate wells, and the plate incubated as before. The plate was washed and HRP-conjugated secondary antibody in assay buffer added [25 ul per well; goat anti-human IgG (Jackson Immunoresearch, Cat. #715-035-150)], and incubated as before. Antibody bound to plate-immobilized peptide(s) or protein was determined at A450 nm using HRP substrate (3,3′,5,5′-tetramethylbenzidine (TMB); eBioscience; Cat. #00-4201-56); 100 μl/well).

[2] = target: T2, LRRC25(36-55) biotin peptide (human, not fully specified; N-terminal NH2; C-terminal GGK-Biotin; native Cys changed to Ser); assay: peptide ELISA
T2 peptide: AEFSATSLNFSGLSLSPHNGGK
Procedure: as §1

[3] = target: T3, LRRC25(51-69) biotin peptide (human, not fully specified; N-terminal acetyl; C-terminal GGK-Biotin); assay: peptide ELISA
T3 peptide: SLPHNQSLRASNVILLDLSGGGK
Procedure: as §1

[4] = target: T4, LRRC25(66-85) biotin peptide (human, not fully specified; N-terminal acetyl; C-terminal GGK-Biotin); assay: peptide ELISA
T4 peptide: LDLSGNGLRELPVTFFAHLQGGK
Procedure: as §1

[5] = target: T5, LRRC25(81-100) biotin peptide (human, not fully specified; N-terminal acetyl; C-terminal GGK-Biotin); assay: peptide ELISA
T5 peptide: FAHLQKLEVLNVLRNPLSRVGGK
Procedure: as §1

[6] = target: T6, LRRC25(111-130) biotin peptide (human, not fully specified; N-terminal acetyl; C-terminal GGK-Biotin; native Cys changed to Ser); assay: peptide ELISA
T6 peptide: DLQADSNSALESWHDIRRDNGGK
Procedure: as §1

[7] = target: T7, LRRC25(126-145) biotin peptide (human, not fully specified; N-terminal acetyl; C-terminal GGK-Biotin; native Cys changed to Ser); assay: peptide ELISA
T7 peptide: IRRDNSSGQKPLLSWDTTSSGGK
Procedure: as §1

[8] = target: T8, LRRC25(141-159) biotin peptide (human, not fully specified; N-terminal acetyl; C-terminal GGK-Biotin; native Cys changed to Ser); assay: peptide ELISA
T8 peptide: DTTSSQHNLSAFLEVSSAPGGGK
Procedure: as §1

[9] = target: T9, LRRC25(150-165) biotin peptide (human); assay: peptide ELISA
T9 peptide: Ac-SAFLEVSSAPGLASATGG-{Biotin′}
Procedure: as §1

[10] = target: T10, His-tagged human LRRC25 extracellular domain protein, human LRRC25-His (human, UniProt Q8N386 21-165); assay: ELISA, plate-immobilized antigen
T10 construct: The entry holds the extracellular domain, a GSG linker and the His tag; also called LRRC25(ECD)-HIS
T10 sequence (Q8N386 other isoform, or with tags, fused parts or gaps): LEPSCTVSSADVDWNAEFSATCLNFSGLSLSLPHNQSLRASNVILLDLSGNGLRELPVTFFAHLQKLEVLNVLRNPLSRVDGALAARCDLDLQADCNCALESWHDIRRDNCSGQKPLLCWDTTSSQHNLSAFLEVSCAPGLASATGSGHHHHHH
Procedure: To establish the relative binding strengths of anti-LRRC25 antibodies against human LRRC25, and their cross-reactivity with cynomolgus monkey LRRC25, antibody binding curve analyses were performed and EC50 values against plate-immobilized recombinant human and cyno LRRC25 proteins were determined.
(§2) A typical ELISA was performed by coating overnight in PBS, pH 7.4, at 4° C. in high binding microtiter wells with 1 ug/mL/100 ul per well of human LRRC25-His or cyno LRRC25-His. An anti-human LRRC25 antibody (2A3, LS Bio, LS-C174039-100) and anti-HIS-HRP (Miltenyi Biotec; 130-092-783) served as coating controls for the human and cyno LRRC25 proteins, respectively. […] Anti-LRRC25 antibodies were added (100 ul per well) at 500 nM and serially diluted 3-fold in assay buffer (1% skimmed milk in PBS, pH 7.4). The plate was incubated with gentle agitation for 1 h at room temperature. The plate was washed 3× and HRP-conjugated secondary antibody in assay buffer added [100 ul per well; goat anti-human IgG (Jackson Immunoresearch, cat #715-035-150)], and the plate was incubated as before. Antibody bound to plate-immobilized LRRC25(ECD)-HIS was determined at A450 nm using HRP substrate (3,3′,5,5′-tetramethylbenzidine (TMB); eBioscience; 00-4201-56); 100 μl/well).

[11] = target: T11, His-tagged cynomolgus monkey LRRC25 extracellular domain protein, cyno LRRC25-His (cynomolgus monkey); assay: ELISA, plate-immobilized cyno LRRC25-His
T11 construct: The entry holds the extracellular domain, a GSG linker and the His tag
T11 sequence (chain, as listed by the source limits assumed): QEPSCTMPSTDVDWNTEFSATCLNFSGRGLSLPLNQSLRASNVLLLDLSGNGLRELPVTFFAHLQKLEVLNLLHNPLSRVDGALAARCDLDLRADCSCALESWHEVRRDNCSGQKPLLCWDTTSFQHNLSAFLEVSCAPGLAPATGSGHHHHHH
Procedure: as §2

[12] = target: T12, biotinylated human LRRC25-His protein (human, UniProt Q8N386 21-165, biotinylated (sites not given)); assay: ELISA, 20 nM antibody, biotinylated antigen on streptavidin plate
T12 construct: also called Biotin LRRC25-His; biotinylated LRRC25 protein
T12 sequence (Q8N386 other isoform, or with tags, fused parts or gaps): as the sequence (Q8N386 other isoform, or with tags, fused parts or gaps) above
Procedure: as §1

[13] = target: T13, LRRC25(96-115) biotin peptide (human, not fully specified; N-terminal acetyl; C-terminal GGK-Biotin; native Cys changed to Ser); assay: as above
T13 construct: also called Biotin LRRC25 (96-115) peptide
T13 peptide: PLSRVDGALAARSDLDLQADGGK
Procedure: as §1

[14] = target: T13, LRRC25(96-115) biotin peptide; assay: peptide ELISA
Procedure: as §1

| Binder | binding result [1] | binding result [2] | binding result [3] | binding result [4] | binding result [5] | binding result [6] | binding result [7] | binding result [8] | binding result [9] | EC50 [10] [nM] | binding result [11] | absorbance (A450) [12] [A450] | absorbance (A450) [13] [A450] | binding result [14] |
| --- | --- | --- | --- | --- | --- | --- | --- | --- | --- | --- | --- | --- | --- | --- |
| anti-LRRC25 chimeric antibody 1H04 (antibody, human IgG4, V domains shown) VH: EVQLVESGGGLVKPGGSLKLSCAASGFTFSNSAMSWVRQTPEKRLEWVASISRGGKTYYPDSVKGRFTISRDNARNILYLQMSSLRSEDTAMYYCARGQELRLFAYWGQGTLVTVSA VL: DIVMTQDAFSNPVTLGTSASISCRSSKSLLHSNGITYLYWYLQKPGQSPQLLIYQMSNLASGVPDRFSSSGSGTDFTLRISRVEAEDVGVYYCAQNLELPFTFGSGTKLEIKR | no binding (tested: 20 nM) | no binding (tested: 20 nM) | no binding (tested: 20 nM) | no binding (tested: 20 nM) | no binding (tested: 20 nM) | no binding (tested: 20 nM) | no binding (tested: 20 nM) | no binding (tested: 20 nM) | no binding (tested: 20 nM) | 0.44 | no binding (tested: 500 nM) | 1.24 | 2.58 | – |
| anti-LRRC25 chimeric antibody 1A03 (antibody, human IgG4, V domains shown) VH: EVQLVESGGGLVKPGGSLKLSCAASGFTFSSSAVSWVRQTPEKRLEWVASISRGGNTYYPDSVKGRFTISRDNARNILYLQMSSLRSEDTAMYYCARGQELRLFAYWGQGTLVTVSA VL: DIVMTQAAFSNPVTLGTSASISCRSSKSLLHSNGITYLYWYLQKPGQSPQLLIYQMSNLASGVPDRFSSSGSGTDFTLRISRVEAEDVGVYYCAQNLELPPTFGGGTKLEIKR | no binding (tested: 20 nM) | no binding (tested: 20 nM) | no binding (tested: 20 nM) | no binding (tested: 20 nM) | no binding (tested: 20 nM) | no binding (tested: 20 nM) | no binding (tested: 20 nM) | no binding (tested: 20 nM) | no binding (tested: 20 nM) | 6.4 | no binding (tested: 500 nM) | 0.37 | 0.478 | – |
| anti-LRRC25 chimeric antibody 2G02 (antibody, human IgG4, V domains shown) VH: QVTLKESGPGILQPSQTLSLTCSFSGFSLSTSGMGVSWIRQPSGKGLEWLAHIYWDDDKRYNPSLKSRLTISKDTSSNQVFLKITSVDTADTATYYCARRHRDYDSRGHWYFGVWGAGTTVTVSS VL: DVVMTQTPKSMSMSVGERVTLSCKASENVGTYVSWYQQKPEQSPKLLIYGASNRYTGVPDRFTGSGSATDFTLTISSVQAEDLADYHCGQSYNYPFTFGGGTKLEIKR | no binding (tested: 20 nM) | no binding (tested: 20 nM) | no binding (tested: 20 nM) | no binding (tested: 20 nM) | no binding (tested: 20 nM) | no binding (tested: 20 nM) | no binding (tested: 20 nM) | no binding (tested: 20 nM) | no binding (tested: 20 nM) | – | – | 2.6 | 0.049 | no binding (tested: 20 nM) |
| anti-LRRC25 chimeric antibody 1F01 (antibody, human IgG4, V domains shown, also called ATCC PTA-126025) VH: EVKLEESGGGLVKPGGSLKLSCAASGFTFSNYAMSWVRQTPEKRLEWVASISRGGNTYYPDSVKGRFTISRDNARNILYLQMSSLRSEDTATYFCTKGNYGSSPFAYWGQGTLVTVSA VL: DIQMTQSPASLSASVGETVTITCRASENIYSYLAWYQQKQGKSPQLLVYNAKTLAEGVPSRFSGSGSGTQFSLKINSLQPEDFGSYYCQHHYGTPFTFGSGTKLEIKR | no binding (tested: 20 nM) | no binding (tested: 20 nM) | no binding (tested: 20 nM) | no binding (tested: 20 nM) | no binding (tested: 20 nM) | no binding (tested: 20 nM) | no binding (tested: 20 nM) | no binding (tested: 20 nM) | no binding (tested: 20 nM) | 8.3 | no binding (tested: 500 nM) | 0.507 | 0.782 | – |

Results, then the binder that gave them:

| binding result [1] | binding result [2] | binding result [3] | binding result [4] | binding result [5] | binding result [6] | binding result [7] | binding result [8] | binding result [9] | EC50 [10] [nM] | binding result [11] | absorbance (A450) [12] [A450] | absorbance (A450) [13] [A450] | binding result [14] | Binder |
| --- | --- | --- | --- | --- | --- | --- | --- | --- | --- | --- | --- | --- | --- | --- |
| no binding (tested: 20 nM) | no binding (tested: 20 nM) | no binding (tested: 20 nM) | no binding (tested: 20 nM) | no binding (tested: 20 nM) | no binding (tested: 20 nM) | no binding (tested: 20 nM) | no binding (tested: 20 nM) | no binding (tested: 20 nM) | 1.9 | no binding (tested: 500 nM) | 1.23 | 2.8 | – | anti-LRRC25 chimeric antibody 3F06 (antibody, human IgG4, V domains shown) VH: DVMLVESGGGLVKPGGSLKLSCAASGFTFSSYAMSWVRQTPDKRLEWVASISSSGNTYYPDTMKGRFTISRDNARNILYLQMSSLRSEDTAMYYCARGLTGTLFAYWGQGTLVTVSA VL: DIVMTQDAPSVPVTPGESVSISCRSSKSLLHSNGITFLYWFLQKPGQSPQLLIYQMSNLASGVPDRFSSSGSGTDFTLRISRVEAEDVGVYYCAQNLELPFTFGSGTKLEIGR |
| no binding (tested: 20 nM) | no binding (tested: 20 nM) | no binding (tested: 20 nM) | no binding (tested: 20 nM) | no binding (tested: 20 nM) | no binding (tested: 20 nM) | no binding (tested: 20 nM) | no binding (tested: 20 nM) | no binding (tested: 20 nM) | 1.5 | no binding (tested: 500 nM) | 0.564 | 0.631 | – | anti-LRRC25 chimeric antibody 1H09 (antibody, human IgG4, V domains shown) VH: DVQLVESGGGLVKPGGSLKLSCAASGFTFSSYAMSWVRQTPEKRLEWVASISRGGNTYYPDSVKGRFTISRDNARNILYLQMSSLRSEDTAMYYCARGNYGNSPFAYWGQGALVTVSA VL: DVVMTQTPASLAVSLGQRATISCRASESVDSYGNSFMHWYQQKPGQPPKLLIYLASNLESGVPARFSGSGSRTDFTLTIDPVEADDAATYYCQQNNEDPFTFGSGTKLEIKR |
